Assay results reported in patent US6649392 (US Dept. of Health and Human Services, dated 2003).

T1: RNase A (bovine pancreatic) (bovine, UniProt P61823 27-150)
T1 construct: also called bovine RNase A
T1 sequence (looked up): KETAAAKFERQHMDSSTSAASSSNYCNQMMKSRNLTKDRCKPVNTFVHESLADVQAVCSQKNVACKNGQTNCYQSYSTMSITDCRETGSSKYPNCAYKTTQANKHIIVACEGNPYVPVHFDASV

B1: recombinant Met(-1) human pancreatic ribonuclease (enzyme)
chain: MKESRAKKFQRQHMDSDSSPSSSSTYCNQMMRRRNMTQGRCKPVNTFVHEPLVDVQNVCFQEKVTCKNGQGNCYKSNSSMHITDCRLTNGSRYPNCAYRTSPKERHIIVACEGSPYVPVHFDASVEDST
notes: mature; also called rhRNase; hRNase
B2: native Onc purified from the eggs of Rana pipiens (enzyme, UniProt P22069 1-104, looked up)
chain: QDWLTFQKKHITNTRDVDCDNIMSTNLFHCKDKNTFIYSRPEPVKAICKGIIASKNVLTTSEFYLSDCNVTSRPCKYKLKKSTNKFCVTCENQAPVHFVGVGSC
modifications: pyroglutamyl residue at position 1 (amino terminus)
notes: mature; also called nOnc; ONCONASE
B3: placental ribonuclease inhibitor (other, UniProt P13489 2-461, looked up)
chain: SLDIQSLDIQCEELSDARWAELLPLLQQCQVVRLDDCGLTEARCKDISSALRVNPALAELNLRSNELGDVGVHCVLQGLQTPSCKIQKLSLQNCCLTGAGCGVLSSTLRTLPTLQELHLSDNLLGDAGLQLLCEGLLDPQCRLEKLQLEYCSLSAASCEPLASVLRAKPDFKELTVSNNDINEAGVRVLCQGLKDSPCQLEALKLESCGVTSDNCRDLCGIVASKASLRELALGSNKLGDVGMAELCPGLLHPSSRLRTLWIWECGITAKGCGDLCRVLRAKESLKELSLAGNELGDEGARLLCETLLEPGCQLESLWVKSCSFTAACCSHFSSVLAQNRFLLELQISNNRLEDAGVRELCQGLGQPGSVLRVLWLADCDVSDSSCSSLAATLLANHSLRELDLSNNCLGDAGILQLVESVRQPGCLLEQLVLYDIYWSEEMEDRLQALEKDKPSLRVIS
notes: also called PRI

Tests used:
[1] = biological target: B3; assay: steady-state inhibition of RNase activity by PRI
Experimental: (§1) Steady-state inhibition constants (K_i) for PRI interaction were determined using a modification of a method (Vincentini et al., Biochemistry 29:8827–8834 (1990)) to analyse competitive slow tight-binding inhibition mechanisms. Steady-state rates of product formation were calculated by a spectrophotometric method. […] The reaction was started by the addition of enzyme (0.01 to 2 nM depending on the assayed protein) and followed during 90–120 min. Several inhibitor concentrations were distributed below and above the enzyme concentration. […] The amount of product formed was calculated by following the absorbance decrease at 286 nm for CpA (change in ε=521 M^-1) and at 280 nm for UpG (change in ε=757 M^-1 cm^-1). The calculated steady-state rates for each inhibitor concentration were fitted by nonlinear regression to the equation for tight binding inhibition as described by Vicentini et al. (1990). In each case $I50$, defined as the total inhibitor concentration required to give 50% inhibition, were deduced from the V_s-I Dixon plot and compared to the calculated K_i, considering in each case the total enzyme concentration.
(§2) [a]K_i values were calculated from the observed steady-state rates (v_s) at different inhibitor concentrations, by fitting the data to the tight-binding non-linear regression equation.

[2] = biological target: rhRNase1-11-rOnc10-104 hybrid (human; Rana pipiens) (UniProt P07998); assay: approximate Ki from I50, inhibition of RNase activity by PRI
[3] = biological target: B1; assay: steady-state tight-binding inhibition of RNase activity (CpA substrate, spectrophotometric); row rhRNase
Experimental: as §1, §2

[4] = biological target: rOnc1-9-hRNase12-127 hybrid (Rana pipiens; human) (UniProt P07998); assay: steady-state tight-binding inhibition of RNase activity (CpA substrate, spectrophotometric); row rOnc1-9-hRNase12-127
[5] = biological target: B2; assay: approximate Ki calculated from I50, inhibition of RNase activity (UpG substrate, spectrophotometric); row nOnc
Experimental: as §1, §2

[6] = biological target: T1, RNase A (bovine pancreatic); assay: steady-state tight-binding inhibition of RNase activity (CpA substrate, spectrophotometric); row RNaseA
Experimental: as §1, §2

[7] = biological target: rhRNase1-11-rOnc10-104 hybrid (human; Rana pipiens) (UniProt P07998); assay: approximate Ki calculated from I50, inhibition of RNase activity (UpG substrate, spectrophotometric); row rhRNase1-11-Onc10-104
[8] = biological target: rOnc1-9-hRNase12-127 hybrid (Rana pipiens; human) (UniProt P07998); assay: steady-state inhibition of RNase activity by PRI

Binder	binding result [1]	fold increase of PRI affinity in relation to Onc [2] [fold]	Ki [3] [nM]	Ki [4] [nM]	Ki [5] [nM]	Ki [6] [pM]	Ki [7] [nM]	fold increase of Ki in relation to rhRNase [8] [fold]
B1	binds	–	–	–	–	–	–	–
B2	binds	–	–	–	–	–	–	–
B3	–	3	0.0002	0.0056	≥ 100000	0.058	> 400	30
